According to the DeepSol protein solubility set:

Assay: soluble on expression in E. coli; label from the status in PepcDB or PDB records

| Sequence | soluble on expression in E. coli |
| --- | --- |
| MRVDVVSRDIIKPSSPTPNHLKKFKLSLLEQLGPTIFGPMVFFYSANNSIKPTEQLQMLKKSLSETLTHFYPLAGRLKGNISIDCNDSGADFLEARVNSPLSNLLLEPSSDSLQQLIPTSVDSIETRTRLLLAQASFFECGSMSIGVCISHKLADATSIGLFMKSWAAISSRGSIKTIGAPVFDTVKIFPPGNFSETSPAPVVEPEIMMNQTLSKRFIFDSSSIQALQAKASSFEVNQPTRVEAVSALIWKSAMKATRTVSGTSKPSILANSVSLRSRVSPPFTKNSIGNLVSYFAAKAEEGINQTKLQTLVSKIRKAKQRFRDIHIPKLVGNPNATEIICSYQKEAGDMIASGDFDFYIFSSACRFGLYETDFGWGKPVWVGFPSVRQKNIVTLLDTKEAGGIEAWVNLNEQEMNLFEQDRELLQFASLNPSVIQPFLHVL | soluble |
| MGHHHHHHSHKKLGLKVGIEIHQQLDTKHKLFCLCPTLTREVEESNFEFFRYLRLKRSEIGEEDRAAKEEVERSRRFIYKYYDTTCLVEADEEPPREVNREALLIAIQVAKMLNMEVVDEVHVMRKIVIDGSNTTGFQRTALVAFGGFLEVDGKRVGVATLCLEEEACRKVEDGEGYAVYSLDRLGIPLVEIGTEPDIDSPEMAKKVAARLGMILRSTGKVKRGLGTIRQDVNISIRDGARVEIKGVQELDILDKIVEYEVLRQVNLLKIR | soluble |
| MAHHHHHHMYGGNFSIPEFILKHEKYEKERLKIKRNKYLKRNIYKDNYSFIYFIFLHNINEHVEITTNNFDLLKGQLEELKKNTNNHIKGIILKNVIKSNNNNYSYFSKLYIPITNIYTCMPDNICSREKNKNPESKPFCDLIVSGYKNQMMNKIYEKFKKLGNQYV | not soluble |
| MKWTGEDVALYERERDYIDTALLPLLPVAFGQGAKRLASGGELVGLIAAEVERQLKGRLFLMPSFVYFADEPRALLTERLADWTNRLRREGMKHLFYVTCDRAWQEGEEADRVWFVPVVPLESMGESYKHELVREQAAELLRFLIGRWAQE | not soluble |
| SLINNLSTHSYWPNRGQLEVQGLTVKYTEAGRAVLNDISFSVDGGQSVGLLGRTGSGKSTLLSALLGLNYTEGEMFIDGVSSSSMPLQAWRKAFGVVPQKVFILTGTFRMNLDPYGRYSDDELWRVAEEVGLKSVIEQFPDKLDFELKDGGSVLSNGHKQLMCLARSILSKARILLLDEPSSYLDPITLQVLRKTLKQSFSGCTVILSEAKVEPLLECDSFLMIEKSSVKSYDSIQKLMNEMSHLKQAISPAD | soluble |
| MFRRIFDAFNFMGSDEESTAAPVDQEGQEQLIDEDGWVNFNHPTESGDSDEFAFIENPEILEMGDETTIEVEMRTTPCPEVEAIKRREEYNLAKAKTAFRNHLESVMFADPDSGKDVRTFKSTHGSGRSVPTASGSIRRLNTQSQRSKKSSGKSNDRKTHRVSDLQLADA | not soluble |
| MSLVKIKIFVNELLTDVEENTTAYKVRDSYNNKCDVLVLNGYPIKTDMTLCENDKLTLIQKGVKPSLDELESLLIARHTPNIHNKLKKGKVAILGLGGLGSNIAISLARIGVGELLLIDYDVVEPSNLNRQQYFIDDIGKLKTDAMIENIKKINPFIKLNKRDIFLNKNNMDTIKDSDLIIEAFDDASCKAQVCNYVLINLKDKYLIASSGMAGYYDSNIITTKKIKDRFYICGDFVNEAKFGEGLMAPRVAICANHMANLATQILIDMEGHHHHHH | soluble |
| MSLSTLKREQIKKDLKDQEFDVVIIGGGITGAGIALDASERGMKVALVEMQDFAQGTSSRSTKLVHGGLRYLKQLQVGVVAETGRERAIVYENGPHVTTPERMLLPMHKGGSMGKFTTSIGLAMYDRLAGVKKAERKTMLNAKETLEKEPLVKKAGLKGGGSYVEYRTDDARLTIEVMKRAEEKGAKVINHTKSVHFTYDSNEKVNGIQVEDQISNETYPIKAKKVINASGPWVDEVRSGDYARNNKQLRLTKGVHIVIDQSKFPLGQAVYFDTEKDGRMIFAIPREGKAYVGTTDTFYDNNKTSPLANQEDRDYLIDAINYMFPDVNVADEDIESSWAGVRPLILEEGKDPSEISRKDEVWEGKSGLLTIAGGKLTGYRHMALEIVDLLSKRLKSEFGLKFDKCATKHLTISGGDVGGSANFDKFIEQKVEEAKSYQIDESTARHFASKYGSNAEELFKIAQTAQYQETGLPLDIYTELVYSIQNEMVYRPTDFFIRRTGKLYFKIDDVLNYKEQVIDVMAGLLGYTNIEKEAYTKELQIAIDEAQTGNHQPAVKELEHHHHHH | not soluble |
| MPPRFNIANVLLSPDGETFFRGFRSKIHAKGSLVCTGEGDENGVFVVVDGRLRVYLVGEEREISLFYLTSGDMFCMHSGCLVEATERTEVRFADIRTFEQKLQTCPSMAWGLIAILGRALTSCMRTIEDLMFHDIKQRIAGFFIDHANTTGRQTQGGVIVSVDFTVEEIANLIGSSRQTTSTALNSLIKEGYISRQGRGHYTIPNLVRLKAAADGDRDDDDD | soluble |
| MRDVPNIGFISLGCPKNLVDSERILTELRSDGYNIIPSYENADLVIVNTCGFIDSAVQESLEAVGEALKENGKVIVTGCLGAKENQIREVHPKVLEITGPHSYEAVMQHVHKYVPRPERNMYTSLVPAQGVKLTPKHYAYLKISEGCDHRCTFCIIPSMRGDLDSRPIVQILDEAKRLADSGVKELLIVSQDTSAYALDQTKENQNKTVFWNGVPIKNNLISLCEQLATLGIWIRLHYVYPYPHVDNLIPLMAEGKILPYLDIPLQHASPKILKAMKRPGSIDRTLERIKQWREICPELTLRSTFIVGFPGETEEDFQMLLDFLTEAQLDRVGCFKFSPVDGAVATEMAEQVPEEVKEERFHRFMQVQQRISVARLQQKIGKTLAIIIDEIDEYGIIGRSMADAPEIDGVVYVDNISQQAVTVGQIILVTITNADEYDLWGTYLEHHHHHH | soluble |
| LHRIVDKMHDTSTGIRPSPNMEQGSTYKKTFLGSSLVDWLISSNFAASRLEAVTLASMLMEENFLRPVGVRSMGAIRSGDLAEQFLDDSTALYTFAESYKKKVSSKE | soluble |
| MGSDKIHHHHHHMSQPLLSLPIDVLNIISKAMPTTLFQQLATQCTEVSFLNTGISNVNIKLSCEDGDKVLRVNQPHSNWCDRSLEVECWQAAIVANIAPVLIWVSDDKQVYLSEFIHQPETDWSIFASMRSHLSLGQSTNQSISAVDAVPLLSALFCKLSTLPVPNKSITVTEQWQQYAYQLDSLTESQIDPQWHDAWQQLLRLNGLVRHWLSQLEACVLLPTFCHRDLTPHNLLLSGRAPHQLFCIDYEYAVASHPLFDLASVVASHKLSTIQVNQLIDNVIMQYCQAASLTDVAAAKAALPAAINCFWLFSAMWALLMAAKEPQKVTQYLQYFTYYLTLITC | not soluble |
| MQQEEPNKYVKELTQEKYKYGFTTEVHTDVIERGLNEDVVRLISSKKDEPEWLLEFRLKAYRHWLTLEMPTWAHLRIPEIDYQAISYYADPTKKKEGPKSMDEVDPELIKTFNKLGIPLEEQMALSGMAVDAVMDSVSVKTTFKETLMEKGIIFCSFSEAVREHPDLVKKYMGSVVGYRDNFFAALNSAVFSDGSFVYIPKGVRCPMELSTYFRINARNTGQFERTLIVADDDSYVSYLEGCTAPMRDENQLHAAIVEIVVHDRAEVKYSTVQNWYPGDAEGKGGVYNFVTKRGNCKGVDSKLSWTQVETGSAITWKYPSCILTGDNSTAEFYSVAVTNNYQQADTGTKMIHLGKNTRSTIVSKGISAGHSENSYRGLVRVAEKADNARNYSQCDSLLLGDKCGAHTFPYMDIHNETAVVEHEATTSKISEDQIFYCNQRGIPTEDAIGLIVNGYAKEVLNKLPMEFAVEAQKLLTISLEGSVG | not soluble |
| MRDRVRWRVLSLPPLAQWREVMAALEVGPEAALAYWHRGFRRKEDLDPPLALLPLKGLREAAALLEEALRQGKRIRVHGDYDADGLTGTAILVRGLAALGADVHPFIPHRLEEGYGVLMERVPEHLEASDLFLTVDCGITNHAELRELLENGVEVIVTDHHTPGKTPPPGLVVHPALTPDLKEKPTGAGVAFLLLWALHERLGLPPPLEYADLAAVGTIADVAPLWGWNRALVKEGLARIPASSWVGLRLLAEAVGYTGKAVEVAFRIAPRINAASRLGEAEKALRLLLTDDAAEAQALVGELHRLNARRQTLEEAMLRKLLPQADPEAKAIVLLDPEGHPGVMGIVASRILEATLRPVFLVAQGKGTVRSLAPISAVEALRSAEDLLLRYGGHKEAAGFAMDEALFPAFKARVEAYAARFPDPVREVALLDLLPEPGLLPQVFRELALLEPYGEGNPEPLFLLFGAPEEARRLGEGRHLAFRLKGVRVLAWKQGDLALPPEVEVAGLLSENAWNGHLAYEVQAVDLRKPEALEGGIAPFAYPLPLLEALARARLGEGVYVPEDNPEGLDYAWKAGFRLLPPEEAGLWLGLPPRPVLGRRVEVALGREARARLSAPPVLHTPEARLKALVHRRLLFAYERRHPGLFSEALLAYWEVNRVQEPAGSP | soluble |
| MSLSGLHQADLEMVAAAYAKSNATIVTYGMGITQHNEGTANVRLICDLLMLRGNLGKPGAGICPLRGHSNVQGNRTVGITEKPSPAFLDKLQQTFGFTPPAHHGHDAVQAMQAMIAGSAKALLCLGGNFAVALPDPGQCFPAMGKLDLSVHIATKLNRSHLLVARETFLFPCLGRTELDMQDGLRQAITVEDSMSMVHASAGKLAPASEFLLSEPAIVAGMARATLPGSRVPWLELVADYDKIRDLIEQTVPGFDDYNARIRVPGGFRMPLAAAERQWLTPSGKAEFFVFPGLHEDKEVDGADVLRLITLRSHDQYNTTIYALDDRYRGVFGRRDVLFISPADLAARGLAHGDLVDIETVIGGRRLRYEKITAIEYKIANGTVGAYYPEANRLVPLDYLDVDSGTPSYKSVPVRVLRSSPAEGHHHHHH | not soluble |
| MSWREKLGMIHIYTGNGKGKTTAALGLALRMLGSGGKVIIIQFMKAPKVYGEYFMAEKCNFKIESYGLPKFVHGKPDEEDIKAAKRALERAREVVKSGEWDLVILDEICVALGFGMLNIEEVKELIQEKAKNTELVLTGRYCPKELYELADYVTEMREIKHPYQRGILARRGVEY | soluble |
| MGSDKIHHHHHHMQSGYYSSTGGIVTQFHRLDMISNNLANANTTGFKRDDVVIGDFLRLYEQQKEPLPLEDQTREAAKFLNRAMDRVPSIVEEYTDRSIGGITPSENRFDFALQSENAYFMIETPEGIRYTRDGSFTLNSEGRLVTKEGFAVLPREFVQSRQYIDIPDGVVIEADRNGNLYSRTLNNDELGDIIPLGNIAIASFENPKYLEKTGKNLYEYPQERMGERNLATNSGALVQGYLEKSNVNAVWEMTGLIETNRLVDMYSKVMKTHMDDLNTEAITKLAVKA | not soluble |
| MNRFSGKSVIVTGSSSGIGRATAVLFAKYGAQVTITGRDAGKLEATKKKMLKVMKNPENVCVVVANLTDSDGQDEIVQSALDAFGRIDVLVNNAGANVVDGTFNTDQSTELYHKTFQINFEAVIEMVKKTKNHLIESKGEIVNVSSVAAGPQALAPSPYYAASKAALDQYTRCVALDLILQGVRVNSVSPGVVTSGFLGAMGMSEQVQKQIEENFTSNRACIPAGVCGKPEDIAELIIFLADRKRSSYIIGQSIVADGGTSLVSGLTAQNIQRNN | not soluble |
| MNFADIFSKIRRQQPSVKEAPNHWVKCQSCHALMYYKEIESCFNVCPKCNYHMRISADERIKLLSDEGSFIEYDANLEAIDPLKFVDSKSYKKRLSEGESKTGRKSSVISGECEINGLKTQLVVFDFSFMGGSLGSVEGEKIVRAIQRAITSKTSLVIVSASGGARMQESTYSLMQMSKTSAALKLLSKEKLPYISILTDPTMGGVSASFAWLGDLIIAEPEALVGFAGARVIKQTIGADLPEGFQKAEFLLEHGLIDAIVERGEQKQYLSDVLKFFSGKLEHHHHHH | not soluble |
